Reference: patent publication US20170096490A1 (published 2017)
One block for each molecule: values may come before it.

Legend:
[1] = molecular target: human RANK-L (Receptor Activator of Nuclear factor Kappa B Ligand), soluble (human) (UniProt O14788); experiment: cell-based or functional assay
[2] = molecular target: T1, human RANK-L (Receptor Activator of Nuclear factor Kappa B Ligand), soluble (human, UniProt O14788 140-317, limits assumed); experiment: SPR BIACORE 3000, RANK-L on CM5 chip, 100 nM Nanobody; indicative, one concentration
T1 construct: Used plain, biotinylated or ALEXA647-labeled; also called hRANK-L; sRANK-L
T1 sequence (looked up): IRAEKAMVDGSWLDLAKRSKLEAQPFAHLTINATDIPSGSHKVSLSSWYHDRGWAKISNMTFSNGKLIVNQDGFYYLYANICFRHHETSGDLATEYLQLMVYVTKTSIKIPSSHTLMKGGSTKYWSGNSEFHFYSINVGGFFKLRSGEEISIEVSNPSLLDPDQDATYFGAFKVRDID

[3] = molecular target: T1, human RANK-L (Receptor Activator of …); experiment: AlphaScreen, biotinylated RANK-L vs RANK-huFc beads
[4] = molecular target: T1, human RANK-L (Receptor Activator of …); experiment: SPR BIACORE 3000, RANK-L on CM5 chip, 100 nM Nanobody

IC50, NF-kappaB reporter gene assay (luciferase, HEK293T, 300 ng/ml human RANK-L) [1]: 6.03 nM
Molecule: osteoprotegerin (from UniProt O00300 22-401) (receptor)

Kd [2]: 0.288 nM
kon [2]: 441000 M⁻¹ s⁻¹
IC50 [3]: 0.274 nM
koff [4]: 0.000127 s⁻¹
B1: RANKL18hum3 (VHH)
VHH: EVQLVESGGGLVQPGGSLRLSCAASGRTFSRSAMGWFRQAPGKGREFVGFITGSGGTTYYADSVKGRFTISRDNAQNPVYLQMNSLRPEDTAVYYCGVYRRTYISSTYSESSEYDYWGQGTLVTVSS
